Values quoted from earlier work in PMC2725201.
pKd: −log10 of the molar value. Read-outs that look alike come from different tables or passages of the source.

Tests used:
[1] = target: C3a C3a (Homo sapiens) (UniProt P01024)
[2] = target: C5a C5a (Homo sapiens) (UniProt P01031)
[3] = target: C5a C5a (Homo sapiens) (UniProt P01031); remark: listed apart in the source
[4] = target: C5a-desArg C5a-desArg (Homo sapiens) (UniProt P01031)
Sequence of C5a-desArg C5a-desArg (Homo sapiens) (P01031 678-750): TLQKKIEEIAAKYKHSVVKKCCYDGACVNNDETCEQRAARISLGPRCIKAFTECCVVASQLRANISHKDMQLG

Sequence of C5a C5a (Homo sapiens) (P01031 675-754): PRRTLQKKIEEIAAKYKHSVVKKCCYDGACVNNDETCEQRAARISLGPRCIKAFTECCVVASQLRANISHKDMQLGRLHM
Sequence of C5aR (P21730 whole entry): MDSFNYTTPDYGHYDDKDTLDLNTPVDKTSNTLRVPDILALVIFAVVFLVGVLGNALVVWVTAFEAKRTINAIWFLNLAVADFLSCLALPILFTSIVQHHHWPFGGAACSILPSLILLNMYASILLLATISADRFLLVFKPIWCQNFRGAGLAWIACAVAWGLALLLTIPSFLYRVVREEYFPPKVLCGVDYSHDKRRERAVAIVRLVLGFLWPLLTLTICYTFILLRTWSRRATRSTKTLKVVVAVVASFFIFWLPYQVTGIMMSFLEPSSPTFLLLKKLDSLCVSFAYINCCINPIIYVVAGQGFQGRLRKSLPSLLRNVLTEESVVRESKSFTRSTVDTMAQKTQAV
Sequence of C3aR (Q16581 whole entry): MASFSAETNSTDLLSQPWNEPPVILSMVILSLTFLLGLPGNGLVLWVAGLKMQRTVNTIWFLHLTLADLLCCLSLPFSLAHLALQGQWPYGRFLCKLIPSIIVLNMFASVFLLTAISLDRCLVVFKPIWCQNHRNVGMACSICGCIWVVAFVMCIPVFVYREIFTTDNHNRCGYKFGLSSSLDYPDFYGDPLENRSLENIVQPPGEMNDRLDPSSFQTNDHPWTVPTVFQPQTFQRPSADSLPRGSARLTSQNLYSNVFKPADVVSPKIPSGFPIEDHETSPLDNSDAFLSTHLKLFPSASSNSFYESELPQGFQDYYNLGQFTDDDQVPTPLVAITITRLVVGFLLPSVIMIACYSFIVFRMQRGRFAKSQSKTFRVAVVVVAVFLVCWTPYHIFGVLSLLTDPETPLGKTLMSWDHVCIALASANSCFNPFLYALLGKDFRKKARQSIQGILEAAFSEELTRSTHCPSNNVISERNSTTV
Sequence of C3a C3a (Homo sapiens) (P01024 669-751): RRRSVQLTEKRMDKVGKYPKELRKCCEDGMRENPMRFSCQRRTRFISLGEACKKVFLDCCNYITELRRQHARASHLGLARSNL
Sequence of C5L2 (Q9P296 whole entry): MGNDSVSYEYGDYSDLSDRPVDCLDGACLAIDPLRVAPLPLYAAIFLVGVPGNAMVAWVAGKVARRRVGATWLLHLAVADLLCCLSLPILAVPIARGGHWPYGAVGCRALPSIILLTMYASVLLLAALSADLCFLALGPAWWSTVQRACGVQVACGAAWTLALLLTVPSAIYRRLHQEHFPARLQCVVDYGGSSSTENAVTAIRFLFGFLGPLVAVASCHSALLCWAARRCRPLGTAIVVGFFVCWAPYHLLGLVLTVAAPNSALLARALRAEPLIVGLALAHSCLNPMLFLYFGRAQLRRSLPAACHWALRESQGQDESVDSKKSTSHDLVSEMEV

In the case of C3aR (from UniProt Q16581), the pKd [1] is given as 9.00.
In the case of C5L2 (from UniProt Q9P296), the pKd [2] is listed as 8.60.
In the case of C5aR (from UniProt P21730), the pKd [3] is given as 9.00 and the pKd [4] is given as 6.18.
